{
  "source": "patent US20230137032A1",
  "about": "(GlaxoSmithKline, published 2023)",
  "binders": {"B1": {"name": "CA8 chimera antibody (human chimeric CA8) (antibody, V domains shown)", "VH": "EVQLQQSGAVLARPGASVKMSCKGSGYTFTNYWMHWVKQRPGQGLEWIGATYRGHSDTYYNQKFKGKAKLTAVTSTSTAYMELSSLTNEDSAVYYCTRGAIYNGYDVLDNWGQGTLVTVSS", "VL": "DIQLTQTTSSLSASLGDRVTISCSASQDISNYLNWYQQKPDGTVELVIYYTSNLHSGVPSRFSGSGSGTDYSLTIGYLEPEDVATYYCQQYRKLPWTFGGGSKLEIKR", "notes": "also called Chimera CA8; CA8 chimeric antibody"}},
  "key": {"[1]": {"biological_target": "T1, human BCMA expressed on cells (human, UniProt Q02223 1-184)", "T1 construct": "whole, on cells; also called human BCMA HEK293; ARH77-hBCMA 10B5 BCMA expressing transfectant cells", "T1 sequence (looked up)": "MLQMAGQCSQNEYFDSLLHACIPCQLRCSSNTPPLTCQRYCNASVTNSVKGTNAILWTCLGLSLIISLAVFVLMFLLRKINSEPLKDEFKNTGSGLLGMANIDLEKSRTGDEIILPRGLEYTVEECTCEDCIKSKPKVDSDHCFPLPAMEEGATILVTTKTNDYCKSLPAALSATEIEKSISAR", "assay": "FACS on H929 cells, PE anti-human IgG, MFI", "method": "(§1) Cells were then washed with FACS buffer (PBS+0.5% BSA+0.1% sodium azide) to remove unbound antibody. Cells were incubated with a secondary PE labelled anti-human IgG antibody for 15 minutes at RT and then washed with FACS buffer to remove unbound antibody. Cells were analysed by FACS and mean fluorescence intensity (MFI) values measured to determine binding."}, "[2]": {"biological_target": "T2, recombinant human BCMA, commercial (US Biological, B0410) (human, UniProt Q02223 5-54, limits assumed)", "T2 construct": "also called commercial human BCMA; Human commercial BCMA", "T2 chain (looked up)": "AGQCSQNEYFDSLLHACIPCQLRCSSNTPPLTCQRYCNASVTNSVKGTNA", "assay": "Biacore T100, antibody captured on Protein A, 37C"}, "[3]": {"biological_target": "T3, recombinant cyno BCMA, in house material (cyno, UniProt A0A2K5UD97 4-52)", "T3 construct": "also called Cyno in house BCMA", "assay": "Biacore T100, antibody captured on Protein A, 37C"}, "[4]": {"biological_target": "T1, human BCMA expressed on cells", "assay": "FACS on JJN-3 cells, PE anti-human IgG, MFI", "method": "as §1"}, "[5]": {"biological_target": "T2, recombinant human BCMA, commercial (US …)", "assay": "Biacore T100, antibody captured on Protein A, 25C, experiment 1", "method": "(§2) Protein A was immobilised on a CMS chip (GE Healthcare, Cat No: BR-1005-30) by primary amine coupling and this surface was then used to capture the antibody molecules. Recombinant human BCMA (US Biological, B0410) was used as analyte at 256 nM, 64 nM, 16 nM, 4 nM and 1 nM. Regeneration of the capture surface was carried out using 50 mM NaOH. All binding curves were double referenced with a buffer injection (i.e. 0 nM) the data was fitted to the using the 1:1 model inherent to T100 evaluation software. The run was carried out at 25° C. and 37° C. for experiment 1 and only 37° C. for experiment 2 using HBS-EP as the running buffer."}, "[6]": {"biological_target": "T2, recombinant human BCMA, commercial (US …)", "assay": "Biacore T100, antibody captured on Protein A, 37C, experiment 2", "method": "as §2"}, "[7]": {"biological_target": "T4, recombinant human BCMA Fc 4-53 (human)", "T4 construct": "also called Human BCMA CD33-hBCMA ECD (4-53) TEV-Fc; recombinant BCMA", "assay": "ELISA, neutralisation of ligand binding to plate-coated BCMA Fc 4-53; competitor BAFF; competitor BAFF", "method": "(§3) 96 well flat bottomed plates were coated overnight with 1 μg/mL solution of recombinant human BCMA Fc 4-53 in PBS. Following a wash step using 0.05% TWEEN20, plates were blocked with 2% Bovine Serum Albumin solution in PBS for 1 hour at room temperature. […] 40 μL of 2% BSA was added to the relevant control wells. […] Equivalent volume of 2% BSA was added to the relevant control wells. Plates were allowed to incubate for 2 hours at room temperature, after which they were washed as before. […] Following a wash step, 50 µL of a 1:4000 dilution of Streptavidin-HRP (Amersham RPN4401) was added to each well and incubated for 30 minutes at room temperature. The wash process was repeated again followed by the addition of […] of Tetramethylbenzidine substrate solution (T8665, Sigma) into each well. Plates were incubated for 20-25 minutes at room temperature, wrapped in foil. The reaction was stopped with the addition of […] of 1M H₂SO₄. Optical density was determined at 450 nm using Spectromax reader."}, "[8]": {"biological_target": "T1, human BCMA expressed on cells", "assay": "FMAT cell binding on HEK293 cells transfected with human BCMA, anti-human IgG FMAT Blue detection", "method": "Cryopreserved transfected human, cyno BCMA and mock transfected HEK293 cells were recovered from LN2 storage. […] The assay plates were left for a minimum of 90 minutes before the result was read on the ABI8200 (FMAT) plate reader."}, "[9]": {"biological_target": "T4, recombinant human BCMA Fc 4-53", "assay": "competition ELISA: binding of recombinant human APRIL to coated recombinant human BCMA Fc 4-53, biotinylated anti-APRIL and streptavidin-HRP, % of control", "method": "as §3"}},
  "data": [
    {"binder": "B1", "values": [
      {"measurement": "EC50 (read off the curve)", "setting": "[1]", "result": "~0.3", "unit": "µg/mL"},
      {"measurement": "Kd", "setting": "[2]", "result": 0.036, "unit": "nM"},
      {"measurement": "Kd", "setting": "[3]", "result": 0.305, "unit": "nM"},
      {"measurement": "EC50 (read off the curve)", "setting": "[4]", "result": "~0.2", "unit": "µg/mL"},
      {"measurement": "Kd", "setting": "[5]", "result": 0.14, "unit": "nM"},
      {"measurement": "Kd", "setting": "[6]", "result": 0.055, "unit": "nM"},
      {"measurement": "EC50", "setting": "[7]", "result": 0.695, "unit": "µg/mL"},
      {"measurement": "EC50 (read off the curve)", "setting": "[8]", "result": "~0.4", "unit": "µg/mL"},
      {"measurement": "IC50 (read off the curve)", "setting": "[9]", "result": "~0.8", "unit": "µg/mL"}
    ]}
  ]
}
